T1: human Mpl (full length, expressed on BaF3 cells) (human, UniProt P40238 26-635)
T1 sequence: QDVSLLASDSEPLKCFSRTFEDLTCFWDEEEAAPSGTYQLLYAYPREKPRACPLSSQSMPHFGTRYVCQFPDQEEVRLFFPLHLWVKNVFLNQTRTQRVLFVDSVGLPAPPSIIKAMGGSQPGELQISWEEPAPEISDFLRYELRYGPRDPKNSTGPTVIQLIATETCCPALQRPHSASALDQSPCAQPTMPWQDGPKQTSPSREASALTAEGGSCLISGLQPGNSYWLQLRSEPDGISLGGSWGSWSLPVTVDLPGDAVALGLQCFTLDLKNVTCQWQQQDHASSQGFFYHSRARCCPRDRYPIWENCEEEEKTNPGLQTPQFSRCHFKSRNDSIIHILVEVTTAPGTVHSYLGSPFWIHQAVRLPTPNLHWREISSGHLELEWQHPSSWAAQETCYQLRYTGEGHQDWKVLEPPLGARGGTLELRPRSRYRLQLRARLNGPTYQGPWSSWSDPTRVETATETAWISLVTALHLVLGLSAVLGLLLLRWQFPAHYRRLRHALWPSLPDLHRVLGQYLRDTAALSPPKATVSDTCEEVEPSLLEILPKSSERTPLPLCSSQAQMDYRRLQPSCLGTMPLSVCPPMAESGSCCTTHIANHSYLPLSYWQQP

B1: VB22B Diabody (scFv)
scFv: QVQLQQSGPELVKPGASVKISCKASGYAFTNSWMNWVKQRPGKGLEWIGRIYPGDGETIYNGKFRVKATLTADKSSSTAYMDISSLTSEDSAVYFCARGYDDYSFAYWGQGTLVTVSAGGGGSDIVMTQAAPSIPVTPGESVSISCRSSKSLLHSNGNTYLYWFLQRPGQSPQLLIYRMSNLASGVPDRFSGSGSGTAFTLRISRVEAEDVGVYYCMQHIEYPFTFGSGTKLEIK
B2: VB22B sc(Fv)2 (scFv)
scFv: QVQLQQSGPELVKPGASVKISCKASGYAFTNSWMNWVKQRPGKGLEWIGRIYPGDGETIYNGKFRVKATLTADKSSSTAYMDISSLTSEDSAVYFCARGYDDYSFAYWGQGTLVTVSAGGGGSGGGGSGGGGSDIVMTQAAPSIPVTPGESVSISCRSSKSLLHSNGNTYLYWFLQRPGQSPQLLIYRMSNLASGVPDRFSGSGSGTAFTLRISRVEAEDVGVYYCMQHIEYPFTFGSGTKLEIKGGGGSGGGGSGGGGSQVQLQQSGPELVKPGASVKISCKASGYAFTNSWMNWVKQRPGKGLEWIGRIYPGDGETIYNGKFRVKATLTADKSSSTAYMDISSLTSEDSAVYFCARGYDDYSFAYWGQGTLVTVSAGGGGSGGGGSGGGGSDIVMTQAAPSIPVTPGESVSISCRSSKSLLHSNGNTYLYWFLQRPGQSPQLLIYRMSNLASGVPDRFSGSGSGTAFTLRISRVEAEDVGVYYCMQHIEYPFTFGSGTKLEIK
B3: anti-human Mpl antibody VB22B IgG (antibody, V domains shown)
VH: QVQLQQSGPELVKPGASVKISCKASGYAFTNSWMNWVKQRPGKGLEWIGRIYPGDGETIYNGKFRVKATLTADKSSSTAYMDISSLTSEDSAVYFCARGYDDYSFAYWGQGTLVTVSA
VL: DIVMTQAAPSIPVTPGESVSISCRSSKSLLHSNGNTYLYWFLQRPGQSPQLLIYRMSNLASGVPDRFSGSGSGTAFTLRISRVEAEDVGVYYCMQHIEYPFTFGSGTKLEIK

Columns and labels:
[1] = target: human Mpl (full length, expressed on BaF3 cells) (human) (UniProt P40238); experiment: cell-based or functional assay
[2] = target: T1, human Mpl (full length, expressed on …); experiment: cell-based or functional assay

Molecule	BaF-human Mpl EC50 (cell proliferation, WST-8) [1]	TPO-like agonist activity, BaF-human Mpl EC50 (cell proliferation, WST-8) [2]
recombinant human TPO (rhTPO, R&D) (from UniProt P40225 22-353) (ligand)	76 pM	–
B1	–	61 pM
B2	–	27 pM
B3	–	> 30000 pM

Source: patent publication WO2005107784A1 (dated 2005)
